assay: soluble on expression in E. coli; label from the status in PepcDB or PDB records

Q: For “MKKILSILLALLLSISSLGVTTSHAEEKIHIEAAAALLFDADTGKILHEQNPDELLAIASMSKLIVVYAVLEAIKEGKITWDTKVNISDYAYEVSRNNEFSNVPFEKGRQYTVRELYHSIVIFSANGSSIALAELLAGSEKNFLNLANEHAKKLGLKKYKFVNATGLNNTDLKGKHPEGTDPNAENSMSARDMGILSKAMITKYPEMLEDTKQRFRNFPDNHPKPIRMENWNWMLPGAAFAYEGTDGLKTGSSDTAGYGFTITAKRGDVRLISVIIKTKSMDERFTESRELIEYGFNNFEKQKLKVDKNNTLSVAQGKEDQVTVAPEKEITVIAKKGSKNPYKIGTEVDKSLAEDGHLVAPIKKDAKVGSITLESTDKYGFLDGSNSMKVTAKTTEEVEKANWFVLTMRSIGDFFSNLWSKVF”, which “soluble on expression in E. coli” value is on record?
A: not soluble

Q: Which “soluble on expression in E. coli” value does the source give for “MSLDLFSWAAAQQAAQSAPLAARMRPQTLDEFVGQEHLVGPGRFLRRALEAGHLPSCILFGPPGTGKTTLARLMASNVNAHFEQLNAVTSGVQDIRRIVDEARARLAERGQKTVVFIDEIHRWRKDQQDALLPHVEDGLITLVGATTQNPLVSVNAPLVSRTRIFELKPLSDEHIAHLLDRALRTPGRGLGNYNATVTPEAMEHLVRMAGGDARAALNALELAVLLTQPDEQGRRTVTLETAEEALLKRAVVYDHDGDEHYHVASALIKSIRGSDPDAALYWLARMLYAGEDPRFIARRLVISAAEDIGLADPQALVIAQAAADAVSFIGMPEGRIPLAEAVVYLACAPKSNSAYLAIDRALAVVEREKTPPVPNHLKDTGYGSDQRLGYGKGYQYPHDFPGAWVEQRYLPEGVDGPFWEPKGYGREAELARLLRERRGREGHHHHHH” here?
A: not soluble

Q: Which “soluble on expression in E. coli” value does the source give for “MGSDKIHHHHHHMIIMIPFKSMRDQAGLNRQHIFDLARLPPDLLAPLDLGQHERQLILLGHAGRLLWERVQKHATDPVHPIDSYTIGVVEQWAALALPHTRIRFVYPRGLPANRHVGLQRLGTLAGWHHPSPFMVGIDARWGSWFAYRAAIIVDSELPASPVEDHGHPCVDCTAKPCIGTCPASALDSGTMDMNACTASGSLKPRPARTAAWRDRPAL” here?
A: not soluble

Q: Which “soluble on expression in E. coli” value does the source give for “MSLAKILVIDDESTILQNIKFLLEIDGNEVLTASSSTEGLRIFTENCNSIDVVITDMKMPKLSGMDILREIKKITPHMAVIILTGHGDLDNAILAMKEGAFEYLRKPVTAQDLSIAINNAINRKKLLMENERMTQELLAHRNYLQGLHDSAAKILLNMLPKNLPDIEGFNFAVDYKSCDGVGGDMYDVCDIGDYICFYVFDVSHHGILAAVISIIIKSFLQNIEYNYRQGINKRRFPEIVLDLNLELLSNTAQNVFASLFLGFIDKNSKKLYTVSAGHIPQYIMKENGLVPLESTGPILGVFEDSTYKCAVNQLEPGDKVLLFTDGIIESPSDSSDESSDGNQIFGYENMVKVLESCKNEPISTTIDKIMKAVKDFSGNRCTDDMTILGVEVLKENEGHHHHHH” here?
A: soluble

Q: Which “soluble on expression in E. coli” value does the source give for “MYKATVIIKLKKGVLNPEGRTIQRALNFLGFNNVKEVQTYKMIDIIMEGENEEKVKEEVEEMCKKLLANPVIHDYEIKVEKIE” here?
A: soluble

Q: For “MLWHAMPPELNTARLMAGAGPAPMLAAAAGWQTLSAALDAQAVELTARLNSLGEAWTGGGSDKALAAATPMVVWLQTASTQAKTRAMQATAQAAAYTQAMATTPSLPEIAANHITQAVLTATNFFGINTIPIALTEMDYFIRMWNQAALAMEVYQAETAVNTLFEKLEPMASILDPGASQSTTNPIFGMPSPGSSTPVGQLPPAATQTLGQLGEMSGPMQQLTQPLQQVTSLFSQVGGTGGGNPADEEAAQMGLLGTSPLSNHPLAGGSGPSAGAGLLRAESLPGAGGSLTRTPLMSQLIEKPVAPSVMPAAAAGSSATGGAAPVGAGAMGQGAQSGGSTRPGLVAPAPLAQEREEDDEDDWDEEDDW”, which “soluble on expression in E. coli” value is on record?
A: soluble

Q: For “MSLYLEKYYYEKNIQEEFFKFLYSMTGKKEEIVVICIGDPVFEGNILAPLVGTLLHERNIPNVYGTLKEPVYEINIKEIYNKILKKYDNPYIILVASSFPVDFHDEREVIVLKNDPYEIQTASGSLKLGNASFIVVFDLEDSYCKVNFIEKLGIRKIYKYSEAIFKTLYYILHNKNYVKEGHHHHHH”, which “soluble on expression in E. coli” value is on record?
A: soluble

Q: For “MSRRRIRKFERPEEALLHLLDAAGIYRVGSRVWLHKPRVRELGFQYLAVETLVREYALAAEREYRGSVVYSKVYGGREYKILLGRGEEVAEASLADPSTVQRLLFSWRHLEELLPSPPLPAFVVDLSLKFMHTEEELSKLRLQIAVALSEVRKYLWDPHLVLTNMDPQTSGWISEVLGDNKVTISQSKPSEILWSMDADRVVILRPDAPQPLSGSEVLAADAFLIGGIVDRIPRPGVSRILDNLVPWGVPRRIELRGSVAGVPERINRIVEILLKARYKYPGNLEKAIITSMTKKDVLTRVYSEIIKRGRRVGSELVVEWSLYEDLSSWLPLTPEDFMLAAKRARARIEGAPRRDNALEHHHHHH”, which “soluble on expression in E. coli” value is on record?
A: not soluble

Q: With “MKYDLIIIGSGSVGAAAGYYATRAGLKVLMTDAHMPPHQQGSHHGDTRLIRHAYGEGEKYVPLVLRAQTLWDELSTHNEEPIFVRSGVVNLGPADSAFLANVARSAQQWQLNVERLDATALMTRWPEIRVPDNYIGLFEADSGFLRSELAITTWLRLAREAGCAQLFNSPVSHIHHDDNGVTIETSEGCYHASKALISAGTWVKALVPELPVQPVRKVFAWFKADGRYSTKNRFPAFTGEMPNGDQYYGFPAENDELKIGKHNGGQLIQAPEERKPFAAVASDGAEAFPFLRNVLPGIGGCLHGAACTYDNSPDEDFIIDTLPGHENTLVITGLSGHGFKFAPVLGEIAADFALGKTPSFDLTPFRLSRFSQ” as the sequence, how does the “soluble on expression in E. coli” value read?
A: not soluble

Q: For “MKKSYLVTPLVAGALILPAALPATAAQASAPAPAAVSTVNKTALTTDQIKAERSALNSRINMLQETQKAIPGSQYADQIEDLIKTALDLSGAIDTIAHGGVPAYDPATIVPRIHLAIDAADAIKTGNTTLQHKVKKAHVELGLEIAKASIVAINPASSVAQVQDEIKALKARIDKVSAYPDLSKDDTATIAYKQTLRKTIHEVRVGRNKNIVGKKDQAVVDTLNKEISKADKVRANAKSTVAQVDTAVDQLRAAYQTALNAPDKAKKLEHHHHHH”, which “soluble on expression in E. coli” value is on record?
A: not soluble

Q: For “MAESPSQSDAQLVAHQSPGQQADSDLTSLVFDYKSVLCVYFFSHLLTVLKTNAIAEMSQQVQMGMENMLKMVYEIDQNSVGIKEEIEKSKDFAMEKKRILEEEKDQFQKAAYTILDMLSNSRG”, which “soluble on expression in E. coli” value is on record?
A: soluble

Q: Which “soluble on expression in E. coli” value does the source give for “HMRQRHILFANVQGHGHVYPSLGLVSELARRGHRITYVTTPLFADEVKAAGAEVVLYKSEFDTFHVPEVVKQEDAETQLHLVYVRENVAILRAAEEALGDNPPDLVVYDVFPFIAGRLLAARWDRPAVRLTGGFAANEHYSLFKELWKSNGQRHPADVEAVHSVLVDLLGKYGVDTPVKEYWDEIEGLTIVFLPKSFQPFAETFDERFAFVGPTLTGRDGQPGWQPPRPDAPVLLVSLGNQFNEHPEFFRACAQAFADTPWHVVMAIGGFLDPAVLGPLPPNVEAHQWIPFHSVLAHARACLTHGTTGAVLEAFAAGVPLVLVPHFATEAAPSAERVIELGLGSVLRPDQLEPASIREAVERLAADSAVRERVRRMQRDILSSGGPARAADEVEAYLGRVAP” here?
A: soluble

Q: Which “soluble on expression in E. coli” value does the source give for “MSLEKKDTNSLKLLLIGNTGIGEYKSRAERKGLWYKLKRFLWTNEFDQTVSALAKWHAEEKADAVLGLGDFLGIPGPLSARDERFTKRWYDIFVKDAKLDIPWLMTLGEEEALVNPSASVRHHYTGEHPNWYMPNDAYTATFSFSTSMTMANGTIQHEAFNATVINVNTWNLFVGNPIANNMQSMMDRLMWLSDQLYTAVNQTTNWLIIMGHLPLVSTGPQGEQGRLQYVDDLYKNGQPRGPEAVLIQMLLSHYQVDLYVSAHDHFMEYVALEDLSKNTTTAFITSGAAVRLLDKDVGRGWIGRLRGALYPILCWSGRRILYAFHPGEGHHHHHH” here?
A: not soluble

Q: With “MAGDPMNIDYSVLKKYPLCDRCFGRLYGKLIRSSNFDRGHALKLAKAIELEEDLRTALEKMNETPENSEVNPTDLEKLEEIKELMYALHKTGTSGIKLDLIDDIEKYETKFKNEAEYEKNEECDELCPWCKGIFEPENIEKVAENVVEALSEYEFDSFLVGTKLPKRFKELENEIETPFMESIRQEFGRELGKVVVPLIKRRVDKENPDIVVMVNPYNQKVTLQVNPVFIKGRYKKLVRGIPQSHWDCRSCRGKGCEKCNFTGKQYMTSVEEIIAEPFMDVMKGSSEALHGAGREDIDVRMLGHGRPFVIEIKEPKIRKVNLEELASKVNESGNVEIINVEYGVKKDVHFFKNEPHKKTYLAHVECEEKVSNEEVAELVKKLEDLTIDQRTPDRVSHRRADLVRVRKVYKAWPHMIDDYNFELKIFCDGGLYIKELINSDEGRTTPSVSELLNKKCICKFLDVLDVHDYEDAENILEHHHHHH” as the sequence, how does the “soluble on expression in E. coli” value read?
A: soluble
